According to patent US20250197490A1, “ANTI-CORTICOTROPIN-RELEASING HORMONE ANTIBODIES AND USE IN CONGENITAL ADRENAL HYPERPLASIA” (HBM ALPHA THERAPEUTICS, INC., priority 2021, published 2025):
Changes are numbered by the printed parent chain. “Also recorded” adds a separate entry of the source.

T1: human UCN1 (Homo sapiens, UniProt P55089)
T1 sequence (P55089 83-122 limits assumed): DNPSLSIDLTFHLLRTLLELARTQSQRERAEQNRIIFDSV

B1: PR302038: humanized variant of PR301777; VH SEQ ID NO: 256, VL SEQ ID NO: 311 (antibody, V domains shown)
VH: EMQLVESGGGLVQPGGSLRLSCAASGFTFSNYWMNWVRQAPGKGLEWVAEIRLKSNNYATHYAESVKGRFTISRDDSKSSVYLQMNSLKTEDTAVYYCTVGTLVYWGQGTLVTVSS
VL: EIVLTQSPATLSLSPGERATLSCRASQSVSTSTYNYMHWFQQKPGQAPRLLIKFASNLESGIPARFSGSGSGTDFTLTISSLEPEDTAVYYCQHSWEIPYTFGQGTKLEIK
modifications: PR302036 VH, PR302038 VH, PR302041 VH; PR302031 VL, PR302038 VL, PR302045 VL, PR302052 VL, PR302066 VL
B2: PR302334-26: Series 9 humanized variant of PR302334; VH SEQ ID NO: 277, VL SEQ ID NO: 328 (antibody, V domains shown)
VH: EVQLVESGGGLVQPGGSLRLSCAASGFTFSTYAMSWVRQAPGKGLEWVASIRSGGTTYYPDSVKGRFTISRDNSKNSLYLQMNSLRAEDTAVYYCTRGIDWGQGTTVTVSS
VL: DIVMTQSPDSLAVSLGERATINCKASQSVNNDVAWYQQKPGQPPRLLIYYASNRYTGVPDRFSGSGSGTDFTLTISSLQAEDLAVYFCQQDYSSWTFGGGTKVEIK
modifications: PR302334-18 VH, PR302334-26 VH, PR302334-27 VH; PR302334-10 VL, PR302334-24 VL, PR302334-26 VL, PR302334-4 VL
B3: PR302334-24: humanized variant of PR302334; VH SEQ ID NO: 275, VL SEQ ID NO: 328 (antibody, V domains shown)
VH: B2 VH with Q13K, S74A
VL: B2 VL
modifications: PR302334-16 VH, PR302334-24 VH, PR302334-25 VH; PR302334-10 VL, PR302334-24 VL, PR302334-26 VL, PR302334-4 VL

Legend:
Mrap1 KO mice = Mrap1 KO mice constitutively high ACTH model; type: in vivo, mouse; details: for plasma ACTH concentration in Mrap1 KO mice: single dose of mAb 20 mg/kg
human UCN1 = target: T1, human UCN1; assay: Human UCN1 ELISA binding; details: in words
Description: Streptavidin (Thermo, Cat: 21125) was diluted in PBS to a concentration of 2 μg/ml. 100 μl of diluted streptavidin was added per well to ELISA microplates, and the plates were incubated overnight at 4° C. Plates were blocked with ELISA blocking solution (containing 2% w/v BSA, 0.05% (v/v) Tween-20, pH 7.4 PBS buffer) at 37° C. for 1 hour, and then incubated with 0.5 μg/mL CRH (NT biotin), 0.5 μg/mL CRH (CT biotin), 1 μg/mL human UCN1 (NT biotin), or 1 μg/mL human UCN1 (CT biotin) for 1 hour at 37° C. Plates were then washed and incubated with diluted anti-CRH antibody (Ab) at 15 μg/ml (100 nM, 10 diluted, 8 points) for 1 hour at 37° C. Subsequently, plates were washed and incubated with HRP-conjugated goat anti-human IgG (H+L) antibody (Jackson, Cat: 109-035-088) at 37° C. for 1 hour. […] 100 μL of ELISA stopping solution (Solarbio, Cat #: C1058) was added to terminate the reaction, and the optical density at 450 nm (OD450 nm) was determined by an ELISA plate reader (Molecular Devices, Spectra max 384 plus).
Streptavidin (Thermo, Cat: 21125) was diluted in PBS with a concentration of 2 μg/mL. […] 100 μL of ELISA stopping solution (Solarbio, Cat #: C1058) was then added to terminate the reaction, and the OD450 nm was determined by an ELISA plate reader (Molecular Devices, Spectra max 384 plus).

[1] = test system: wildtype female C57BL/6 mice; assay: Wildtype mice restraint-stress model (ACTH and corticosterone); type: in vivo, mouse
Description: 8-10 week old wildtype female C57BL/6 mice were obtained from Charles River Laboratories. Mrap1 KO mice were obtained from Queen Mary University of London, UK. SSR125543A, a small molecule CRHR1 antagonist, was obtained from Axon Medchem (Cat #Axon 1799). Mouse Corticosterone (55-Corms-E01) and adrenocorticotropic hormone (ACTH) ELISA kits (21-ACTHU-E01) were obtained from ALPCO, USA. All procedures were carried out in accordance with the Guide for the Care and Use of Laboratory Animals of the National Institutes of Health. Protocols were approved by Charles River Laboratories Institutional Animal Care and Use Committee (IACUC).
To determine the effect of nonpainful physical restraint upon stress responses, mice were restrained in 50 ml polypropylene ventilated tubes in which the tip was cut off with a razor blade to allow the mouse to breathe easily for 15-20 minutes. A mouse was directed to the open tube and crawled in. A piece of paper towel was put behind the mouse so that it could not back out, and the cap was screwed on. The mouse was placed back in its cage, ventral size down on the bedding. This stressor is not considered painful, as mice are confined to a limited space (in a ventilated restraint tube) but not in an unnatural physical position. The investigator was present in the room during the entire procedure. At the end of the procedure, the mouse was removed by the tail.
On day 1, each mouse was injected intraperitoneally with 20 mg/kg of anti-CRH mAbs, hIgG1 or PBS (5 mice per group). On day 2 or 3, and 14 each mouse was subjected to physical restraint-stress described above for 15 or 20 min. Immediately after restraint-stress, 200 μl of blood was collected in EDTA tubes from the submandibular vein of each mouse. Plasma was separated using a refrigerated centrifuge (4° C. at 500×g for 10 min) and snap-frozen in dry ice for subsequent ACTH and corticosterone ELISA measurement.
On day 1, one half of mice were injected IP with 20 mg/kg of anti-CRH Ab or hIgG1 (5 mice per group). […]

Molecule	plasma ACTH concentrations in Mrap1 KO mice, dose dependent (Mrap1 KO mice; 20 mg/kg and 5 mg/kg, day 2 and day 16)	binding to human UCN1 peptides in ELISA (human UCN1)	plasma ACTH concentration in Mrap1 KO mice (Mrap1 KO mice)	duration of the effects of the mAb ([1]; wildtype mice restraint model)	extent of inhibition of ACTH and corticosterone versus SSR125543A ([1]; wildtype mice restraint model, SSR125543A 30 mg/kg)	efficacy versus SSR125543A in reducing plasma ACTH and corticosterone levels ([1]; wildtype mice restraint stress, mAb 20 mg/kg and 5 mg/kg, SSR125543A 30 mg/kg)	efficacy versus SSR125543A in reducing plasma ACTH levels (Mrap1 KO mice; Mrap1 KO mice, PR302064 20 mg/kg, PR302334-24 20, 10 and 5 mg/kg, SSR125543A 30 mg/kg)	extent of inhibition of ACTH versus SSR125543A (Mrap1 KO mice; Mrap1 KO mice, SSR125543A 30 mg/kg)
B1	reduced	–	–	–	–	–	–	–
B2	–	except for PR302334-26, bound to human UCN1 peptides	markedly reduced	–	–	–	–	–
B3	–	–	significantly reduced	at least 17 days	more complete inhibition	more efficacious; also recorded: superior efficacy	more efficacious; also recorded: superior efficacy	more complete inhibition
